Experimental data: the nanobody polyreactivity screen of Harvey et al. (2022)

Assay: yeast display, Sf9 membrane polyspecificity reagent, FACS + sequencing; frameworks hold sequencing errors
Method in brief: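 After 36–48 hours of galactose induction, yeast (Saccharomyces cerevisiae BJ5465) displaying a synthetic nanobody library were stained at 4 °C for 1 hour with 10% biotinylated, detergent-solubilized Sf9 membrane reagent. Streptavidin microbeads enriched the stained cells before FACS sorting into low and high (top ~1%) gates on anti-HA and streptavidin fluorescence. Each clone's polyreactivity label reflects its gate of origin.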

| Sequence | polyreactivity (PSR sort gate) |
| --- | --- |
| QVQLEESGGGLVQAGGSLRLSCPASGSTFGKNAMGWSRQAPGKERELVASITWRGGCTYYADSVKGRITISRDNAKNTVFLQMNSLKPEDTAVYYCATNWHIHIGSYKYYYWGQGTQVTVSS | low polyreactivity |
| QVQLEESGGGLVQAGGSLRLSSAASGRIFGGYAMGWYRQAPGKEREMVAAITQSGGSTYYADSVKGRFTISRDNAKNTVYLQMNSLTAEDTAVYYCNARLARGYWTPGKERPMEYWGQGTQVTVSS | low polyreactivity |
| QVQLEESGGGLVQAGGSLRLSSAASGSTFCWYAMGGYRKEPGKERELVAAISIGGSTKYADSVKGRLTISRDNAKNSVYLQMNRMKPEYSAVYYCAAEVSYHYVPYGYWGQGTQVTVSS | low polyreactivity |
| QVQLEESGGGLVQAGGSLRLSSAASGSTFYIYVMGWYSQAPGKERELVARISSSGGSTYYADSVKGRFTISRDNAKNSVYLQMNSLKPVDTAVYYCNVDYGAWYDYWGQGTQVTVSS | low polyreactivity |
| QVQLEESGGGLVQAGGSLRLSWAASGSTFSVNAMGWYRQAPGKERELVARITNGGSTYYADSVKGRFTISRDNAKNTVYLQMNSLKPEDTAVYYCAAKLGSYIYHKQRDWGQGTQVTVSS | low polyreactivity |
| QVQLEESGGGLVQAGGSLRLTCAASGITFGTYAMGWYRQAPGKEREFVAGYYADSVKGRFTISRDNAKNTVYLQMNSLKPEDTAVYYCAADYLYHDDVDYWGQGTQVTVSS | low polyreactivity |
| QVQLEESGGGLVQAGGSLRLTCAASGSTFYGYAMGWYRQAPGKERELVAAITRSGGSTYYADSVKVRFTISRDNAKYTVYLQMNSLKPEDTAVYYCNKYIGWYGTGSDYYWGQGTQVNVSS | high polyreactivity |
| QVQLEESGGGLVQAGGTLRLSCAASGSIFYGYAMGWYRKATGKQRDLVAVITDGGGSTYYADSVKGRFTISRDNAKNTVYLQMNSLKPEDTAVYYCAADSWGRYYYSSYSYDYWGQGTQVTVSS | low polyreactivity |
| QVQLEESGGGLVQEGGSLRLSCAASGRIFKWNAMGLYRQAPGKERELVAAISLSGGSTYYADSVKGRFTISRDNAKNTVYLQMNSLKPEDTAVYYCNAYAYHRYGYWGQGTQVTVSS | high polyreactivity |
| QVQLEESGGGLVQEGGSLRLSCAASGSTFVTYAMGWYRPSPGKARELVAAISQSGGSTYYADSVKGRFTISRDNAKNTVYLQMNSLKPEDSAVYYCAAEYWDIAYCFVWWIYDYWGQGTLVTVSS | high polyreactivity |
| QVQLEESGGGLVQVGGSLRLSCAASGLTFRYYAMGWYRQAPGKERELVAAISGSGSTTYYADSVKGRFTISRDNAKNTVYLQMNSLKPEDTAVYYCNARRTGRVGGVVTHYYWGQGTQVTVSS | high polyreactivity |
| QVQLEESGGGVVQAGGSLRLSCAASGGIFNVYVMGWYRQAPGKERELVAAITWRGGSTYYADSVKGRFTISRDNAKNTVYLQMNSLKPEDTAVYYCNADAPFQSSSDGYQVEYWGQGTQVTVSS | low polyreactivity |
| QVQLEESGGGVVQAGGSLRLSCAASGRTLSHYAIGWYRQAPGKERELVAVISWSGTSTYYADSVKGRFTISRDNAKNTVYLQMNSLKPEDTAVYYCNADTYGYYLWTGAVSAGDDYWGQGTQVTVSS | low polyreactivity |
| QVQLEESGGGVVQAGGSLSLSCAASVSTFIFNTMGWYRQATGKERELVASITGDGRTNYADSVKGRFTISRDNAKNTVYLQMNSLKPEDTAVYDCAADGYDQYPLWAPPGDYWGQGTQVTVSS | low polyreactivity |
| QVQLEESGGRLVQAGGSLRLSCAASGFIFGWNAMGWYRQAPGKERELVASIRSSGGTTYADSVKGRFTISRDNAKNTVYLEMNSLKPEDTAVYYCSKRDRYKRYDFWGLGTQVTVSS | low polyreactivity |
| QVQLEESGGRLVQAGGSLRLSCAASGYTFPLYAMGWYRQAPGKERELVADINIGGASTYYADSVKGRFTISRDNAKNTVYLQMNSLKPEDTAVYYCAAEDSWYWDAWFDYWGQGTQVTVSS | low polyreactivity |
| QVQLEESGGVLVQAGGSLRLSCAASGRIFVWYAMGWYRQAPGKERELVAAISSADSTNYADSVKGRFTISRDNAKNTVYLQMNSLKPEDTAVYYCNAEGWPGNVVYGYYYWGQGTQVTVSS | low polyreactivity |
| QVQLEESGGVLVQAGGSLRLTCAAAGSILAYNSMGWYREAPGKERELVAAISWTGRTYYADSVKGRFTISRDNEKNTVYLQMNSLIPEDTAVYYCNARGRQRSRGSQIYDYWGQGTQVTVSS | high polyreactivity |
| QVQLEESGRGLVQAGGSLRISCAASGRIFWGYAMGWYRQAPRKERELVARITSGGDTYYADSVKGRFTISRDNAKNTVYLQMNSLKPEDTAVYYCAAELRPGYRSSYGLIYDYWGQGTQVTVSS | low polyreactivity |
| QVQLEESGRGLVQAGGSLRLSCAASGFIFYRNTMGWYRQAPGKERELVAAISVSGGSTNYADSVKGRFTISRDNAKNTVYLQINSLKPEVTAVYYCAARVRESLVYGGWDDYWGQGTQVTVSS | high polyreactivity |
| QVQLEESGRGLVQAGGSLRLSCAASGSIFGVYTMGWYRPAPRKDRELVAAISASGGRTYYADSVKGRFTISRDTAKITVYLQMNSLKPEDTAVYYCAARASKGYGWYDYWGQGTQVTVSS | high polyreactivity |
| QVQLEESGVGLVQAGGSLRLICAASGFTFYSYAMGWYRQAPGKERELVASISWRGGSTYYADSVKGRFTISRDNAKNTVYLQMNSLKPVDTAVYYCAAQKRGSPVYRRDYWGQGTEVTVSS | high polyreactivity |

| Sequence | polyreactivity (PSR sort gate) |
| --- | --- |
| QVQLEESGVGLVQAGGSLRLSCADSGFSFRTNAMGWYRQAPGKERELVAAISRSSGSTYYADSVKGRFTISRDNSKNTVYLQMNSMKPEETAVYYCNAVRYYSRGYTRYDYWGQGSQVTVSS | high polyreactivity |
| QVQLEESRGGLGQAGGSLRLICAASGRTFAYNPMGWSRQAPGKERELVSAITWSGGSTYYADSVKGRFTISRDNAKNTVYLQMNSLKPEDTAVYYCAREWFQYSPYHRFDYWGQGTQVTVSS | high polyreactivity |
| QVQLEESRGGLVQAGGSLRLSCAASGRIFPVYVMGWDRQAPGKERELVAAINYNGGSTTDADSVKGRFTISRDNAKNTVDLQMNSLKPEDTAVYYCAKVGVLGYYTYYYWGQGIQVTVSS | low polyreactivity |
| QVQLEESVGGLVQAGGSLRLICAASGSIFSSYAMGWYRQAPGKERELVATISKRGGITSYADSVKGRFTISRDNAKNTVYLQMNSLKPEDTAVYYCAADSWFSYRGPLYYWGQGTQVTVSS | high polyreactivity |
| QVQLEESVGGLVQAGGSLRLICAASGSTFVYNAMGWYRPAPGTERELVAAISSGGSTDYADSVKGRFTISRDNAKNTVYLQMNSLKPEDTAVYYCAARPDYRYHYWGQGTQVTVSS | high polyreactivity |
| QVQLEESVGGLVQAGGSLRLSCAASGFIFPYYTMGWYRQAPGKERELVAAISRTAVGTYYADSVKGRFTISRDNAKNTVYLQMNSLKPEDTAVYYCAVVTQRKYDYWGQGTQVTVSS | high polyreactivity |
| QVQLEESVGGLVQAGGSLRLSCAASGRIFTPYAMGWYRQAPGKERELVATISRGTSTSYADSVKGRFTISRDNAKNTVYLQMNSLKPEDTAVYYCAALGPRTTFRYTSYYYWGQGTQVTVSS | high polyreactivity |
| QVQLEETGGGLVQAGGSLRISCAASGFIFSYNAMGWYRQAPGKERELVATITRRGGGTTYADSVKGRFTISRDNAKNTVYLQMNSLIPEDTAVYYCNRDVNSKLSFGSVGYDYWGQGTQVTVSS | low polyreactivity |
| QVQLEETGGGLVQAGGSLRLSCAASGFTIYRYALGSYRQAPGKERELVAAISSRGGTTYYADSVKGRFTISRDNAKNTVYLQMNSLKPEDTAVYYCNAGYYLTLDYWGQGTQVTVSS | high polyreactivity |
| QVQLEETGGGLVQAGGSLRLSCAASGRIFWWYAMGWYRQAPGKERELVAVIDDSGGITYYADSVKGRFTISRDNAKNTVYLQMNSLKPEDTAVYYCARNVNAQKVLAGFDYWGQGTQVTVSS | low polyreactivity |
| QVQLGDSGGGLLQAGGSLRLSCAASGRTFYYNALGWYRQAPGKERELVARIRSGGSTNYADSVKGRFTISRDNAKNTVYFQMNSRKPEDTAVYYCNALGAKGYVKGFDYWGLGTQVTVSS | low polyreactivity |
| QVQLGESGGGIVQAGGSLRLSCAASGRTFPYNVMGWYRQAPGKERELVAGITGSGDSTFYADSVKGRFTISRDHAKNTVYLQMNSLKPEDTAVYYCAARYRTLNDGYIRNYWGQGTQVTVSS | low polyreactivity |
| QVQLGESGGGLCQAGGSLRLSCAASGSIIAGYTMGWYRPAPGNARELVAGIRRGGSTNYADSVKGRVTISRDNAKNTVYLQMNSLKPEDTAVYYCNAQLTRSYVLRTFDYWGQGTQVTVSS | high polyreactivity |
| QVQLGESGGGLLPAGGSLGLSCAASGSTFGYYAMGWDRQAPGKERELVAAINSGDSTSYADSVKGRFTISRDNAKTTLYLQMNSMKPEDTAVYYCAVRPRRHQYGYWGQGTQVTLSS | low polyreactivity |
| QVQLGESGGGLLQAGGSLRLSCAASGFTFYGYAMGWYRQAPGKERELVAAISRRGGSTYYADSVKGRFTISRDNAKYTVYVQMNSLKPEDTAVYYCITLFSHLRDRYDYWGQGTEVTVSS | high polyreactivity |
| QVQLGESGGGLVKAGGSLRLSCAASGRIFFDYGMGGYRQAPGKERELVADITRGGGSTYYADSVKGRFTISRDNAKNTVYLQINSQKPEDTAVYYCAKESSCYYPQRFDYWGQVTQVTVSS | low polyreactivity |
| QVQLGESGGGLVQAGGILRLSCAASGRIFPQYAMGWYRQAPGKERELVAGITSVGSTYYADSVKGRFTISRDNAKNTVYLQMNSLKPEDTAVYFCAAVPSRYVRANRRTYRYYYWGKGTQVTVSS | high polyreactivity |
| QVQLGESGGGLVQAGGSLRLICAASGFIFTTYVMGWYRQAPGKERELVAVISRSGGRTYYADSVKGRFTISRDNEKYTVYLLMNSLKPEDTAVYYCNVDIPVLSHIEYYYWGQGTQVTVSS | low polyreactivity |
| QVQLGESGGGLVQAGGSLRLICAASGLTFSYNDMGWYRQAPGKERELVAGITSNGGSTYYADSVKGRFTITRDNAKNTVYLQMNSLNPEDTAVYYCAAEQYVGVKPFLSDSWGQGNQVTVSS | low polyreactivity |
| QVQLGESGGGLVQAGGSLRLICAASGRTFKKYPMGWYRQAPGKERDVVAAISWSGGTTYYAHSEKGRFTISRDTAKNTVYLQMNSLKPEDTAVYYSAARVSRTGHGYYYYWGQVTQVTVSS | high polyreactivity |
| QVQLGESGGGLVQAGGSLRLSCAASGFTFHKNAMGWYRQAPGKERELVAVISQSASSTYYSDSVKGRFTISRDIAKITVYLQMNGLKPEDTAVYYCNAKYYRYNRRNYWGQGTQVTVSS | high polyreactivity |
